Data taken from patent US20190016813A1 (APROGEN KIC, published 2019).
Substitutions are numbered along the chain they refer to. Names may count otherwise.

T1: human CD43 (JL-1 antigen) on cells (human, UniProt P16150 20-400)
T1 construct: also called leukosialin; sialophorin
T1 sequence: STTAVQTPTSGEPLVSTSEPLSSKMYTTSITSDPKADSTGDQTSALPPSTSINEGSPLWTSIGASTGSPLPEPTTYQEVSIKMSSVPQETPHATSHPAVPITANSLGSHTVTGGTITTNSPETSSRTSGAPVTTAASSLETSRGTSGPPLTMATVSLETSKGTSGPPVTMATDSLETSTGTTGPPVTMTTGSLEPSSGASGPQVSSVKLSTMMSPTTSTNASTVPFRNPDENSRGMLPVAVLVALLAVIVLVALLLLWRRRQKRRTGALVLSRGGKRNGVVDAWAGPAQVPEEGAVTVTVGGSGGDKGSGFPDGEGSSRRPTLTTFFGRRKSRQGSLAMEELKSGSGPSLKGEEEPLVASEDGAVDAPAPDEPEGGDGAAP

B1: humanized anti-CD43 antibody 257-10 (antibody, IgG1, V domains shown)
VH: QVQLVQSGAEVKKPGASVKVSCKASGYTFNGYFMNWVRQAPGQGLRWMGRINPNNGDSFYNQKFQGRVTMTRDTSTSTVYMEPSSLRSEDTAVYYCAREGYYGGRGYALDYWGQGTLVTVSS
VL: DTQMTQSPSSVSASVGDRVTITCRTSQDISNYLNWYQQKPGKAPKLLIYNTSRLHSGVPSRFSGSGSGTDFTLTISSLQPEDFATYYCQQSNMFPYTFGQGTKLEIKR
modifications: glycosylated in the light chain variable region (N50-T-S52 motif; Concanavalin A blot)
B2: modified humanized anti-CD43 antibody, light chain N50Q (antibody, V domains shown)
VH: B1 VH
VL: DTQMTQSPSSVSASVGDRVTITCRTSQDISNYLNWYQQKPGKAPKLLIYQTSRLHSGVPSRFSGSGSGTDFTLTISSLQPEDFATYYCQQSNMFPYTFGQGTKLEIK
B3: humanized anti-CD43 antibody 456-D10 (antibody, V domains shown)
VH: B1 VH with R46E, W47R, P83L, S84P
VL: B1 VL with K39E
notes: tested as humanized IgG
B4: modified humanized anti-CD43 antibody, light chain N50A (antibody, V domains shown)
VH: B1 VH
VL: B2 VL with Q50A
notes: also called modified humanized antibody removing glycosylation
B5: mouse anti-CD43 monoclonal antibody (ART140 JL1) (antibody, human IgG1, kappa, V domains shown)
VH: EVQLQQSGPELVKPGASVKISCKASGYSIGGYFMNWVKQSHGKSPEWIGRINPNNGDSFYNQKFKGTATLTVDRSSDTVHMEVLSLTSEDSAVYYCGREGYYGGRGYALDYWGQGTSVTVSS
VL: DIQMTQTTSSLSASLGDRVTISCRTSQDISNYLNWYQQKPDGTVKLLIYNTSRLHSGVPSRFSGSGSGTDYSLTIRNLEQKDIATYFCQQSNMFPYTFGGGTKLEIKR
notes: also called mouse anti-JL-1 antibody; mJL-1

What was measured:
[1] = molecular target: T1, human CD43 (JL-1 antigen) on cells; assay: staining of CEM7 cells, fluorescence intensity (FIG. 34)
[2] = molecular target: T1, human CD43 (JL-1 antigen) on cells; assay: binding to CD43 positive CEM7 cells (FIG. 45)
[3] = molecular target: T1, human CD43 (JL-1 antigen) on cells; assay: immunofluorescence on Molt-4 cells, antibody 50 ug/ml, no human serum

| Binder | binding result [1] | binding result [2] | other results |
| --- | --- | --- | --- |
| B1 | binds | – | – |
| B2 | – | binds | – |
| B3 | binds | – | – |
| B4 | – | binds | – |
| B5 | – | – | binding result [3]: binds |
